Data: PMC3172050, “Structural and functional properties of NH2-terminal domain, core domain, and COOH-terminal extension of αA- and αB-crystallins” (Molecular Vision, 2011)

How the values were obtained:
[1] = molecular target: the molecule itself; assay: SEC-MALS; multiangle laser light scattering instrument (Wyatt) coupled to an HPLC system, called dynamic light scattering (MALS) by the paper; samples in 50 mM sodium phosphate pH 7.8, filtered through 0.22 um; 18 angles; absolute molar mass of each protein alone
[2] = molecular target: the molecule itself; assay: SDS-PAGE with western blot (anti-His tag antibody); purified His-tagged WT αB on an SDS-PAGE gel; 50 kDa band beside the monomer, both immunoreactive with the anti-His antibody

B1: αB-crystallin NH2-terminal domain (residues 1-66) (domain or fragment, human, UniProt P02511 1-66, looked up)
chain: MDIAIHHPWIRRPFFPFHSPSRLFDQFFGEHLLESDLFPTSTSLSPFYLRPPSFLRAPSWFDTGLS
notes: human αB-crystallin, NH2-terminal domain, residues 1-66; The pET 100D TOPO vector may add further N-terminal residues besides the His-tag; also called αB NTD; not shown: His6, N-terminal, kept
B1: binds [1].

B2: wild type αB-crystallin (natural protein, human, UniProt P02511 1-175, looked up)
chain: MDIAIHHPWIRRPFFPFHSPSRLFDQFFGEHLLESDLFPTSTSLSPFYLRPPSFLRAPSWFDTGLSEMRLEKDRFSVNLDVKHFSPEELKVKVLGDVIEVHGKHEERQDEHGFISREFHRKYRIPADVDPLTITSSLSSDGVLTVNGPRKQVSGPERTIPITREEKPAVTAAPKK
notes: human αB-crystallin, wild type; Subcloned into pET 100D TOPO; the vector may add further N-terminal residues besides the His-tag; also called WT αB; not shown: His6, N-terminal, kept
With B2 the “stoichiometry N” value [2] was 2.

B3: αB-crystallin core domain (residues 67-146) (domain or fragment, human, UniProt P02511 67-146, looked up)
chain: EMRLEKDRFSVNLDVKHFSPEELKVKVLGDVIEVHGKHEERQDEHGFISREFHRKYRIPADVDPLTITSSLSSDGVLTVN
notes: human αB-crystallin, core domain, residues 67-146; The pET 100D TOPO vector may add further N-terminal residues besides the His-tag; also called αB CD; not shown: His6, N-terminal, kept
B3: binds [1].
